{
  "source": "the RNAGym collection of RNA variant scans (doi:10.7554/elife.80360)",
  "parents": {"B1": {"name": "CPEB3 Ribozyme (parent)", "chain": "GGGGGCCACAGCAGAAGCGUUCACGUCGCGGCCCCUGUCAGAUUCUGGUGAAUCUGCGAAUUCUGCUGU"}},
  "data": [
    {"variants_of": "B1", "test": "self-cleavage, relative activity (ratio to wild type); higher = more cleavage; co-transcriptional", "values": [
      {"variant": "C7G C9G", "self-cleavage": 0.966},
      {"variant": "C6U G56U", "self-cleavage": 0.968},
      {"variant": "C6U G56C", "self-cleavage": 0.772},
      {"variant": "C7A C57A", "self-cleavage": 0.173},
      {"variant": "C7A C57U", "self-cleavage": 0.172},
      {"variant": "C7U A15G", "self-cleavage": 0.927},
      {"variant": "C7U A15U", "self-cleavage": 0.534},
      {"variant": "C7U A15C", "self-cleavage": 0.693},
      {"variant": "C7G A10G", "self-cleavage": 0.671},
      {"variant": "C7G A10C", "self-cleavage": 0.703},
      {"variant": "C7G A10U", "self-cleavage": 0.683},
      {"variant": "C6U U44A", "self-cleavage": 0.887},
      {"variant": "C6U U44C", "self-cleavage": 0.933},
      {"variant": "C7G G25U", "self-cleavage": 0.0759},
      {"variant": "C7G G25C", "self-cleavage": 0.0905},
      {"variant": "C7A U62C", "self-cleavage": 0.269},
      {"variant": "C7A U62A", "self-cleavage": 0.275},
      {"variant": "C7A G31C", "self-cleavage": 0.159},
      {"variant": "C7A G31A", "self-cleavage": 0.499},
      {"variant": "C7G U64A", "self-cleavage": 0.279},
      {"variant": "C7G U64G", "self-cleavage": 0.232},
      {"variant": "C7G U64C", "self-cleavage": 0.17},
      {"variant": "C7A U69G", "self-cleavage": 0.897},
      {"variant": "C7A U69A", "self-cleavage": 0.875},
      {"variant": "C7A G48A", "self-cleavage": 0.67},
      {"variant": "C7A G48U", "self-cleavage": 0.696},
      {"variant": "C7G A23C", "self-cleavage": 0.319},
      {"variant": "C7G G48U", "self-cleavage": 0.548},
      {"variant": "C7G G48A", "self-cleavage": 0.457},
      {"variant": "C7U A42C", "self-cleavage": 0.901},
      {"variant": "C7U A42U", "self-cleavage": 0.899},
      {"variant": "C7A G65A", "self-cleavage": 0.496},
      {"variant": "C7A G65C", "self-cleavage": 0.314},
      {"variant": "C7A G65U", "self-cleavage": 0.198},
      {"variant": "C7A A23U", "self-cleavage": 0.824},
      {"variant": "C7A A23G", "self-cleavage": 0.421},
      {"variant": "C7G G56A", "self-cleavage": 0.333},
      {"variant": "C7G G56C", "self-cleavage": 0.211},
      {"variant": "C7A C63U", "self-cleavage": 0.515},
      {"variant": "C7G U69C", "self-cleavage": 0.861},
      {"variant": "C7G U69G", "self-cleavage": 0.779},
      {"variant": "C7G C27U", "self-cleavage": 0.0215},
      {"variant": "C7G C27G", "self-cleavage": 0.112},
      {"variant": "C7G U61A", "self-cleavage": 0.159},
      {"variant": "C7G U61C", "self-cleavage": 0.175},
      {"variant": "C7G U61G", "self-cleavage": 0.172},
      {"variant": "C7G U20A", "self-cleavage": 0.163},
      {"variant": "C7G U20C", "self-cleavage": 0.143},
      {"variant": "C7G U20G", "self-cleavage": 0},
      {"variant": "C7G U26C", "self-cleavage": 0.247},
      {"variant": "C7G C45A", "self-cleavage": 0.378},
      {"variant": "C7G C45G", "self-cleavage": 0.295},
      {"variant": "C7G C45U", "self-cleavage": 0.425},
      {"variant": "C7G C24U", "self-cleavage": 0.107},
      {"variant": "C7G C24G", "self-cleavage": 0.0776},
      {"variant": "C7U C12A", "self-cleavage": 0.555},
      {"variant": "C7A A40C", "self-cleavage": 0.15},
      {"variant": "C7A A40U", "self-cleavage": 0.147},
      {"variant": "C7U A60U", "self-cleavage": 0.244},
      {"variant": "C7U A60G", "self-cleavage": 0.789},
      {"variant": "C7G C57G", "self-cleavage": 0.189},
      {"variant": "C7G C57U", "self-cleavage": 0.158},
      {"variant": "C7G C34A", "self-cleavage": 0.109},
      {"variant": "C7G C34U", "self-cleavage": 0.325},
      {"variant": "C7G C34G", "self-cleavage": 0.0956},
      {"variant": "C7G U53A", "self-cleavage": 0.219},
      {"variant": "C7G U53C", "self-cleavage": 0.217},
      {"variant": "C7G U53G", "self-cleavage": 0.147},
      {"variant": "C7G C18G", "self-cleavage": 0.116},
      {"variant": "C7G C18U", "self-cleavage": 0.107},
      {"variant": "C7G G65U", "self-cleavage": 0.217},
      {"variant": "C7G G65A", "self-cleavage": 0.162},
      {"variant": "C7G G65C", "self-cleavage": 0.126},
      {"variant": "C6U U43A", "self-cleavage": 0.917},
      {"variant": "C7A U53G", "self-cleavage": 0.177},
      {"variant": "C6U G47U", "self-cleavage": 1.02},
      {"variant": "C6U G47C", "self-cleavage": 0.996},
      {"variant": "C6U G47A", "self-cleavage": 1.01},
      {"variant": "C7A C27A", "self-cleavage": 0.0789},
      {"variant": "C7A C27U", "self-cleavage": 0.142},
      {"variant": "C7A C27G", "self-cleavage": 0.133},
      {"variant": "C7A C39A", "self-cleavage": 0.186},
      {"variant": "C7A C39U", "self-cleavage": 0.348},
      {"variant": "C7A G17U", "self-cleavage": 0.126},
      {"variant": "C7A G17C", "self-cleavage": 0.14},
      {"variant": "C7A G17A", "self-cleavage": 0.0679},
      {"variant": "C7A C18A", "self-cleavage": 0.0823},
      {"variant": "C6U G58A", "self-cleavage": 0.981},
      {"variant": "C6U G58C", "self-cleavage": 0.909},
      {"variant": "C7G C63G", "self-cleavage": 0.113},
      {"variant": "C7G C63A", "self-cleavage": 0.237},
      {"variant": "C7G C63U", "self-cleavage": 0.316},
      {"variant": "C7A G50A", "self-cleavage": 0.617},
      {"variant": "C7A G50U", "self-cleavage": 0.54},
      {"variant": "C6U G48C", "self-cleavage": 0.995},
      {"variant": "C6U G48A", "self-cleavage": 1.03},
      {"variant": "C7A C32G", "self-cleavage": 0.126},
      {"variant": "C7A C32U", "self-cleavage": 0.359},
      {"variant": "C6U U55G", "self-cleavage": 0.888},
      {"variant": "C6U U55C", "self-cleavage": 0.775},
      {"variant": "C6U U55A", "self-cleavage": 0.989},
      {"variant": "C7G C66A", "self-cleavage": 0.134},
      {"variant": "C7G C66U", "self-cleavage": 0.459},
      {"variant": "C7G C66G", "self-cleavage": 0.176},
      {"variant": "C7A A13U", "self-cleavage": 0.274},
      {"variant": "C7A A13G", "self-cleavage": 0.598},
      {"variant": "C7A C45G", "self-cleavage": 0.421},
      {"variant": "C7G A8U", "self-cleavage": 0.614},
      {"variant": "C7G A8C", "self-cleavage": 0.514},
      {"variant": "C7G A8G", "self-cleavage": 0.346},
      {"variant": "C6U U61G", "self-cleavage": 0.809},
      {"variant": "C6U U61A", "self-cleavage": 0.736},
      {"variant": "C6U U61C", "self-cleavage": 0.647},
      {"variant": "C7A U26C", "self-cleavage": 0.357},
      {"variant": "C7A U26G", "self-cleavage": 0.274},
      {"variant": "C7G C35U", "self-cleavage": 0.248},
      {"variant": "C7G C35G", "self-cleavage": 0.0899},
      {"variant": "C7A A15G", "self-cleavage": 0.457},
      {"variant": "C7A A15C", "self-cleavage": 0.162},
      {"variant": "C7G U43G", "self-cleavage": 0.29},
      {"variant": "C7G U43A", "self-cleavage": 0.274},
      {"variant": "C7A A51G", "self-cleavage": 0.514},
      {"variant": "C7A A51C", "self-cleavage": 0.477},
      {"variant": "C6U G68U", "self-cleavage": 1.02},
      {"variant": "C6U G68C", "self-cleavage": 0.999},
      {"variant": "C6U G68A", "self-cleavage": 1.03},
      {"variant": "C7U A51U", "self-cleavage": 0.976},
      {"variant": "C7U A51G", "self-cleavage": 0.984},
      {"variant": "C7U A51C", "self-cleavage": 0.966},
      {"variant": "C7A U43C", "self-cleavage": 0.388},
      {"variant": "C7A C12G", "self-cleavage": 0.378},
      {"variant": "C7A C12A", "self-cleavage": 0.147},
      {"variant": "C7G G41U", "self-cleavage": 0.121},
      {"variant": "C7A U64A", "self-cleavage": 0.359},
      {"variant": "C7A U64G", "self-cleavage": 0.355},
      {"variant": "C6U U20G", "self-cleavage": 0.174},
      {"variant": "C7G U67C", "self-cleavage": 0.635},
      {"variant": "C7G U67A", "self-cleavage": 0.773},
      {"variant": "C7A A10C", "self-cleavage": 0.76},
      {"variant": "C7A A10G", "self-cleavage": 0.865},
      {"variant": "C7G A52U", "self-cleavage": 0.301},
      {"variant": "C7G A52C", "self-cleavage": 0.42},
      {"variant": "C7G C32U", "self-cleavage": 0.177},
      {"variant": "C7G C32G", "self-cleavage": 0.106},
      {"variant": "C7A G19U", "self-cleavage": 0.163},
      {"variant": "C7A G19C", "self-cleavage": 0.143},
      {"variant": "C7G G58C", "self-cleavage": 0.285},
      {"variant": "C7G G58U", "self-cleavage": 0.528},
      {"variant": "C7G A15G", "self-cleavage": 0.248},
      {"variant": "C7G A15C", "self-cleavage": 0.0463},
      {"variant": "C7A U36G", "self-cleavage": 0.205},
      {"variant": "C7A U36C", "self-cleavage": 0.223},
      {"variant": "C7G C33G", "self-cleavage": 0.146},
      {"variant": "C7G C33A", "self-cleavage": 0.147},
      {"variant": "C6U U36G", "self-cleavage": 0.127},
      {"variant": "C6U U36A", "self-cleavage": 0.221},
      {"variant": "C7G G11A", "self-cleavage": 0.281},
      {"variant": "C7G A60G", "self-cleavage": 0.175},
      {"variant": "C7G A60U", "self-cleavage": 0.187},
      {"variant": "C7G A16C", "self-cleavage": 0.0882},
      {"variant": "C7G A16U", "self-cleavage": 0.0326},
      {"variant": "C7G A16G", "self-cleavage": 0.329},
      {"variant": "C7U A16C", "self-cleavage": 0.145},
      {"variant": "C7U A16U", "self-cleavage": 0.617},
      {"variant": "C7G G50A", "self-cleavage": 0.456},
      {"variant": "C7G G50U", "self-cleavage": 0.465},
      {"variant": "C7G G50C", "self-cleavage": 0.294}
    ]}
  ]
}
